Experiments:
MS2 coat protein = experiment: apparent KD of MS2 coat protein; higher = weaker reporter binding; conditions: Eterna round: R107
Procedure: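 RNA-MaP round R107: designed RNA switches with theophylline, tryptophan, arginine or FMN aptamers are transcribed on-chip within common flanks. They are titrated with SNAP-549-labelled MS2 coat protein in RNA-MaP buffer (100 mM Tris pH 7.5, 80 mM KCl, 4 mM MgCl2), without ligand or with the indicated ligand. Median apparent KD per design.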

[1] = tested on: K4 kissing-loop RNA reporter; experiment: apparent KD of K4 kissing-loop reporter; higher = weaker reporter binding; conditions: Eterna round: R107;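 further: bound reporter read as fluorescence of individual clusters on recovered sequencing chips by microscopy, with normalized cluster intensities fitted with a binding model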
Procedure: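 RNA-MaP round R107: designed RNA switches with theophylline, tryptophan, arginine or FMN aptamers are transcribed on-chip within common flanks. They are titrated with a labelled K4 kissing-loop RNA reporter in RNA-MaP buffer (100 mM Tris pH 7.5, 80 mM KCl, 4 mM MgCl2), without ligand or with the indicated ligand. Median apparent KD per design.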

[2] = input ligand: theophylline 20 uM
[3] = input ligand: theophylline 2 mM
[4] = input ligand: tryptophan 2.4 mM

Sequence	apparent KD of MS2 coat protein (MS2 coat protein; input ligand: arginine 13.2 mM) [nM]	apparent KD of MS2 coat protein (MS2 coat protein; input ligand: none) [nM]	apparent KD of MS2 coat protein (MS2 coat protein; [2]) [nM]	apparent KD of MS2 coat protein (MS2 coat protein; [3]) [nM]	apparent KD of MS2 coat protein (MS2 coat protein; [4]) [nM]	apparent KD of K4 kissing-loop reporter ([1]; input ligand: FMN 200 uM) [nM]	apparent KD of K4 kissing-loop reporter ([1]; input ligand: arginine 13.2 mM) [nM]	apparent KD of K4 kissing-loop reporter ([1]; input ligand: none) [nM]	apparent KD of K4 kissing-loop reporter [1, 2] [nM]	apparent KD of K4 kissing-loop reporter [1, 4] [nM]
AAAAUAAACUCGGCCGCCACUCAACGGACCCUUUGGACAUGAGGAUCACCCAUGUAUUUUGGAAAGAGGACCGGGAGAAAUAAAA [Exclusion - Trytophan B]	8.32	8.35	17.8	11.7	12.2					
AAAAUAAAUAAAACACGUAACAUGAAGGAUACCAGACAGGAAACUGUCCCUUGGCAGCCUCUACAUGAGGAUCACCCAUGUCGUG [Mat - Same State Theophlline A - Mod of Eli - D17]	112		128		266					
AAAAUAGAAGGAAGACAAAUAGAUACAGAAGGAGCGUAGGAAACUACAGGUAGGUCGCUGGAAAACAUGAGGAUCACCCAUGUAG [SSArg A #22 Slice of Pi Skeleton]	31.5	40.6	54	46.9	42.6					
AAAAUCCUAUCUGAGGAUCACCCAGGUGAAGGAGCGCCCGAAAGGGCAGGUAGGUCGCACCUGAGGAUCACCCUGGUAACCUAAA [ArgEX 10 #DoubleMS2 #OpenEnded #AlternativeMS2]	85.7	102	105	123	88.5					
AAACAUGAGGAUCACCCAUGUCCUCCUGUCCGAGGACCGGUACGGCCGCCACUCGGUUCUCGGGAGGAUGGUCAAAGACUAUCCA [Omei Trp A SS B v9]	120		327	332						
AAACAUGAGGAUCACCCAUGUCCUCGUGAUCGAGGACCGGUACGGCCGCCACUCGGUCCUCGCGAGGUGGAGUCAAAGACUCCAA [Omei Trp A SS A v7]	73.9	182	215	115	69.5					
AAACGCCACGGAAGGAGCGACAUGAGGAUCACCCAUGUAGAAGUGGCGGAUGCACCCUCCUGUCAGGUAGGUCGCCGUGCGCCAA [XArg-B24]	17.1	21.2	39	29.7	22.4					
AAAGACAUGAGGAUCACCCAUGUGGGUGGGCGAGGACCGGUACGGCCGCCACUCGUGGGCGGGAAGGGAUAUUUAAUAAGGAAGA [same state--tryptophan A 1st shot]	50	102	155	272	131					
AACAGACGAGACGAUACCAGUCUCUUAGCGCACAUGAGGAUCACCCAUGUUGGCAAGCUCGACCCUUGGCAGCGUACCUUUGAUC [theeternabot_sameState_MS2_Theo_B_6]	23.8		34.3		24.3					
AACAUACAAUUUUAGGUGGAUAUAAGGCGGCGAGGACCGGUACGGCCGCCACUCGCGUACAUGAGGAUCACCCAUGUCUGAAACU [Same State - Tryptophan A (Freestyle 5)]	14.6	19.8	28.1	28.9	24.4					
AACAUGAGCACGGCCGCCACUCCAUGAACAUGAGGAUCACCCAUACACAUGAGGAUCACCCAUGUGAGGACCGGGUGUCCAUGUG [Exclusion Tryptophan B 2]	12.6		18.7	16.5						
AACAUGAGGAUCACCCAUGUCUGAACUGAAGGAGCGCUAAAUAAGGCAGGUAGGUCGCGGAAUUUUAUAUAUAUAUAUAUAUGGG [9.E]	13.7	25.6	39.9	34.6	20.5					
AACAUGAGGAUCACCCAUGUUAAGUAUGAAGGAGCGUCGGAAACGACAGGUAGGUCGCAUACUUGGCCUUGUACUUCGUGUGUCU [#02 Exclusion - Arginine A]	14.2	14.3	17.9	14.4	14.7					
AACGUAUACAGAAGGAGCGUGAAUUAUAUUACUCAUUCUUAUACAUGAGGAUCACCCAUGUCACAGGUAGGUCGCUGUAUUCGUA [JR_ExcArginiB_Sub019]	81.9	106	91.9	111	81.6					
AACGUAUACAGAAGGAGCGUGAUUUAUAUUUCUUUAACAUAUACAUGAGGAUCACCCAUGUCACAGGUAGGUCGCUGUAUUCGUA [JR_ExcArginiB_Sub023]	33.6	31.1	40.1	32.6	30.8					
AACGUCUUGUCGGCCGCCACUGUAUGGUGCGUGACAUGAAACAUGAGGAUCACCCAUGUAGCAUGCAGGACCGGGACAGUGCCAA [Beriaran]	7.49		13.9	11.6						
AACUGGACCCGUGAUACCAGAGACAUGAGGAUCACCCAUGUACAUGAGGAUCACCCAUGUCUCCCUUGGCAGCACCGCAGGGAGC [Exclusion Theophylline B GF 13]	45.7		127		128					

Sequence	apparent KD of MS2 coat protein (MS2 coat protein; input ligand: arginine 13.2 mM) [nM]	apparent KD of MS2 coat protein (MS2 coat protein; input ligand: none) [nM]	apparent KD of MS2 coat protein (MS2 coat protein; [2]) [nM]	apparent KD of MS2 coat protein (MS2 coat protein; [3]) [nM]	apparent KD of MS2 coat protein (MS2 coat protein; [4]) [nM]	apparent KD of K4 kissing-loop reporter ([1]; input ligand: FMN 200 uM) [nM]	apparent KD of K4 kissing-loop reporter ([1]; input ligand: arginine 13.2 mM) [nM]	apparent KD of K4 kissing-loop reporter ([1]; input ligand: none) [nM]	apparent KD of K4 kissing-loop reporter [1, 2] [nM]	apparent KD of K4 kissing-loop reporter [1, 4] [nM]
AAGGUGAUCCGUGAUACCAGCUCAACAUGAGGAUCACCCAUGUAAGCCUGGAAACAGGCGAGCCCUUGGCAGCACGGUAAUAAUA [(M)'-(Theo1)-(Ms2)-(Theo2)-(M'')]	12.6		14.5		12.6					
AAUAACAUGAGGAUCACCCAUGUAAAAGAUACCAGAUGCAUGAUGAUCCCUUGGCAGCUUAAAACGCGAUUGAUUACAAUCGCGA [Mat - Same State Theophlline A - Mod of Eli - D12]	41		77.9		27.5					
AAUAACGUGAGGAUCACCCACGUAAAAGAUACCAGAGUGAUGAUCCUCCCUUGGCAGCUUAACGCUGAUUGAUUACAAUCAGCGA	49.5	58.7	123	213	49.6					
AAUAAGAUGAGGAUCACCCAUCUAAAAGAUACCAGAGUGAUGAUCCUCCCUUGGCAGCUUAACGCUGAUUGAUUACAAUCAGCGA	21.7	47.2	124	121	25.3					
AAUAAGCAGCUGCAUCAUGGGUGAGCAGAUACCAGCUAGGAAACUAGCCCUUGGCAGCUGCAACAUGAGGAUCACCCAUGUAAUA [(T)'-(M)'-(T1)-(T2)-(M1)-(M2)_Design5]	47.1	42.7	108	46.3	34.7					
AAUAAUAACAUGGGUGAAGUCGUACCAUAACGAGGACCGGUACGGCCGCCACUCGAACAUGAGGAUCACCCAUGUAGGUACGACA [M'-T'-T-MS2-T'' - Design 9]	37.6	86.6	110	85.2	43.7					
AAUAAUAAGGCGGCCGCCACUACACAUGAGGAUCACCCAUGUCUCGCGGGCUUGCGUUGGGAAUGUAGGACCGGGCCAAUAAUAA [Exclusion - Tryptophan B (Freestyle 10)]	14.3		25.8	27.9						
AAUACCGGUCCUCGAAGUGAUCCUCAUGAACGAGGACCGGUACGGCCGCCACUCGAUAACAUGAGGAUCACCCAUGUAAUAAUAA [|T'-M'-Trp-Ms2|_Design4]	72.8	63.9	93.1	115	70.6					
AAUAUUUGCCACAUGAGGAUCACCCAUGUGCGAGGACCGGUACGGCCGCCACUCGGUCGGUGGUUAAUGAAGAUAAACAAUAAUG [XTryp A #11]	7.7	12	15.7	11.5	11.2					
AAUCAUGAAAACAUGACAUGAGGAUCACUCCGAGGACCGGUACGGCCGCCACUCGCGAGGAGGCACAUGAGGAUCACCCAUGUUA [SS Tryp A #1]	31.6		114	148						
AAUCGCCUGGGUCGCAUCCUUGCUCCGGAUACCAGUCAAUAGUUGGACCCUUGGCAGCCGUAGACAUGAGGAUCACCCAUGUAUA [theeternabot_exclusion_MS2_Theo_A_42]	30.2		85.5		55.9					
AAUUAUCAGUCGGCCGCCACUGACACAUGAGGAUCACCCAUGUAACUUGGGUUAAAUUUAAUAAACAGGACCGGGACAAAGGCUA [JR_ExcTryptoB_Sub010]	94.4		189	192						
AAUUUUAACGGAAGGAGCGUCACGUAAUUCAUACAUGAGGAUCACCCAUGUUAGUUGUAGAGACAGGUAGGUCGCCGUUAUUUGA [JR_AAArginiB_Sub025]	15.7	15.7	20.9	17.1	17					
ACACAUGAGGAUCACCCAUGUGCAAUAGAUACCAGUGACGCGGUGCACCCUUGGCAGCUGUUGCUGAGUGAUGGUUCCCUCGGAA [Exclusion Theophylline A GF 6]	17.9		57.6		42.1					
ACACAUGAGGAUCACCCAUGUGCGCUGGAAGGAGCGCAGAAUCAUGCAGGUAGGUCGCCAGUGCCUUUUGAUAAAGGGAAAAGAA [Cezaquce]	66.1	86.1	94.6	69.3	60.6					
UUUGGUAUCUCGGCCGCCACUCGUGGGAAAUGGGCCUCAGGGAUAUAGUGAUGUUAUGUAAAGAAGAGGACCGGGAGAAGGAAGG [ExTryptoB.Dk]						343	232	355	481	208
UUUGGUUUCUCGGCCGCCACUCGUUGUCUAUCGGCUUCAGGGAUAUAGUGAUGUUAUGUAUAGAAGAGGACCGGGAGAAGGUUUU [ExTryptoB.Dw]						467	602	603	864	398
